Measured values taken from paper PMC7781312 (bioRxiv, 2021).

Biological target: SARS-CoV-2 2P S ectodomain trimer (SARS-CoV-2 (YP_009724390), UniProt P0DTC2, stabilised)
Assay: BLI

B1: B6 monoclonal antibody (recombinant IgG with human constant regions) (antibody, V domains shown)
VH: EVQLQQSGPVLVKPGASVRMSCKASGYTITDYYLNWVKQSHGKSLEWLGVLNPYSGGSLYSQTFKGKATLTVDRSSSTAYLELNSLTSEDSAVYYCARQLGRGNGLDYWGQGTSVTVSS
VL: NIMMTQSPSSLAVSAGEKVTMSCKSSQSVLHSSDQKNYLAWYQQKPGQSPKLLIYWASTRESGVPDRFTGSGSGTDFTLTISSVQAEDLAVYFCHQYLSSYTFGGGTKLEIK
- binding result: binds
